Data from US20180325997A1.

Molecular target: hTERT (human telomerase reverse transcriptase) (human) (UniProt O14746)
Assay: cell-based or functional assay

Sequence of hTERT (human telomerase reverse transcriptase) (human) (O14746 whole entry): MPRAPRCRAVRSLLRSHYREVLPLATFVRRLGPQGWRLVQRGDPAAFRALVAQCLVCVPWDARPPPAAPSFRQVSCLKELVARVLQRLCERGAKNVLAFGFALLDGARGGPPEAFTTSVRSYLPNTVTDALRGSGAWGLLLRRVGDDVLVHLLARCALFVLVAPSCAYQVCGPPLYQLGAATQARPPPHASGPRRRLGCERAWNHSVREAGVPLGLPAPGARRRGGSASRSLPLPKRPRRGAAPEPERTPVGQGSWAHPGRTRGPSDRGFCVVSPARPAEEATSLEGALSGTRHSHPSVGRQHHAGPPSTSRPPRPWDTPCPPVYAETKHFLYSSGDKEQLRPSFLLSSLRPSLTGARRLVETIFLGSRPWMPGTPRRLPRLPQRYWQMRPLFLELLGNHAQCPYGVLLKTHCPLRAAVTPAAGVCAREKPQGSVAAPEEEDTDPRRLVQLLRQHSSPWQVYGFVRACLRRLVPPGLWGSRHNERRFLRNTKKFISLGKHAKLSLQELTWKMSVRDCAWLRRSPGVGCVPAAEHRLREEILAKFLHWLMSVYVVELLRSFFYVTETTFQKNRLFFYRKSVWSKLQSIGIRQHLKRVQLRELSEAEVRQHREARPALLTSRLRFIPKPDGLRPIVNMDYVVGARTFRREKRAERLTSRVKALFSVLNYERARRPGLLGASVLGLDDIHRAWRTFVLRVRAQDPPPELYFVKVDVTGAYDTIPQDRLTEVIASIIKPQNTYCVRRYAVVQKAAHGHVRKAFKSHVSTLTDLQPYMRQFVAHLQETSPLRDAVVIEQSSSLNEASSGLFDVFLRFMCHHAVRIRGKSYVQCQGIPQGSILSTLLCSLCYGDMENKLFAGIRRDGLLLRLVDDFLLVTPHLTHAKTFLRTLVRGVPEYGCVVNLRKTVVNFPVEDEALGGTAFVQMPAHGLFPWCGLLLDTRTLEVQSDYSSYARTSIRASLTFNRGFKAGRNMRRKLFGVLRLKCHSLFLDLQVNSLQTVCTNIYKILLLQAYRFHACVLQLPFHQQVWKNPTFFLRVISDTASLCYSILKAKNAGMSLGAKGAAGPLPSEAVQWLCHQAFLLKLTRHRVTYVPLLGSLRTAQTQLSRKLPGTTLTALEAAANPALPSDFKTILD

relative telomerase activity (TRAPEZE kit, real time PCR) in transfected MRC 5 cells against non-transfected cells: 83.4 % elevation
Substance: LRP102-295::FLAG fragment (from UniProt P14206 102-295) (receptor)
